This is an account of results in patent publication US20030040044A1.

Broadly, the EC50 is the concentration needed to bring the measured effect to its halfway point. Read a high EC50 as a need for much substance. As a reminder, the Kd is a measure of binding affinity in units of concentration. The low end stands for higher affinity, the high end for lower affinity.

Assay [1] has as its target αVβ5 integrin on human cells (human) (UniProt P06756).
For assay [2] the target is unchanged. This is another data set of the same source.
The target is the same in assay [3]. The assay is described as follows: binding of radiolabelled P1F6 to M21 cells, Bmax, n = 2.
The target is the same in assay [4]. The assay is described as follows: binding of radiolabelled P1F6 to A375S2 cells, Bmax, n = 4.
Assay [5] shares this target. The assay is described as follows: binding of radiolabelled P1F6 to HT-29 cells, Bmax, n = 1.
Assay [6] has as its target αVβ3 integrin on human cells (human) (UniProt P06756).
The target is the same in assay [7]. The source holds these as a separate data set.
For assay [8] the target is unchanged. The assay is described as follows: binding of radiolabelled LM609 to A375S2 cells, Bmax, n = 2.
For assay [9], the target named is human αVβ3 integrin, purified (human) (UniProt P06756). The assay is described as follows: ELISA on αVβ3-coated plates, fifty percent maximal binding. For orientation: ELISA stands for enzyme-linked immunosorbent assay.
Assay [10] addresses αvβ3 and αvβ5 integrins together on human cells (M21, A375S2, HUVEC) (human) (UniProt P06756).
The target of assay [11] is human αVβ3 integrin, purified (human) (UniProt P06756). The assay is described as follows: saturation binding on αvβ3 coated plate (ELISA), non-linear regression, n = 6.

P1F6 (antibody) gave an Adhesion (%) of A375S.2 cells to vitronectin (% of adhesion without antibody) in assay [1] of 28.5. The same substance yielded an Adhesion (%) of HUVEC to vitronectin (% of adhesion without antibody) in assay [2] of 39.8. In addition, the Receptors per cell (receptors per cell) stood at 44000 in [3], 70000 in assay [4] and 73000 in assay [5].
In assay [6], LM609 (antibody) had an Adhesion (%) of A375S.2 cells to fibrin (% of adhesion without antibody) of 50, an Adhesion (%) of A375S.2 cells to fibrinogen (% of adhesion without antibody) of 14, an Adhesion (%) of A375S.2 cells to gelatin (% of adhesion without antibody) of 25.2 and an Adhesion (%) of A375S.2 cells to vitronectin (% of adhesion without antibody) of 42.1. Further, in assay [7], the Adhesion (%) of HUVEC to fibrin (% of adhesion without antibody) turned out to be 48.1, the Adhesion (%) of HUVEC to fibrinogen (% of adhesion without antibody) turned out to be 14.3, the Adhesion (%) of HUVEC to gelatin (% of adhesion without antibody) was 36.5 and the Adhesion (%) of HUVEC to vitronectin (% of adhesion without antibody) is 26.3. Moreover, the Receptors per cell (receptors per cell) in assay [8] was found to be 300000.
Regarding c7E3 IgG (antibody), the EC50 in assay [9] came out at 0.07 µg/mL.
For the substance “Human IgG (polyclonal serum or antibody)”, the Adhesion (%) of HUVEC to vitronectin (% of adhesion without antibody) in assay [10] turned out to be 96.3.
ReoPro (Fab) gave a Kd in assay [11] of 0.25 nM.
